Experimental data as given in the supplement of paper PMC10567573.

B1: SMARCE1 (parent)
chain: YHNSPAYLAYINAKSRAEAALEEE

Variants of: B1
Assay: protein stability index of a GFP-peptide fusion (GPS, HEK-293T) (PSI 1-6); higher = more stable
Details: c terminus: a fixed tail appended
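Also: lentivirally expressed fusions sorted by FACS into six bins by GFP to DsRed ratio, PSI derived from sequencing read proportions per bin multiplied by bin number.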

Protein stability index: each site, then its substitutions
Y1: N 4.85 | P 5.16 | Q 5.29 | R 4.86 | S 4.85 | T 5.26 | V 4.95 | W 4.52
H2: A 2.37 | C 2.12 | D 4.99 | E 4.87 | F 2.79 | G 2.65 | I 2.2 | K 5.07 | L 2.09 | M 1.96 | N 3.77 | P 1.84 | Q 1.7 | R 4.83 | S 2.5 | T 1.7 | V 2.84 | W 2.66 | Y 4.42
N3: A 2.05 | C 1.34 | D 1.89 | E 2.22 | F 1.81 | G 2.28 | H 1.69 | I 2.08 | K 2.89 | L 1.95 | M 2.06 | P 1.55 | Q 1.57 | R 2.26 | S 1.81 | T 2.19 | V 2.03 | W 1.89 | Y 2.87
S4: A 3.12 | C 1.56 | D 3.31 | E 2.89 | F 2.04 | G 2.45 | H 1.91 | I 2 | K 1.77 | L 2.35 | M 3.39 | N 2.23 | P 1.91 | Q 3.3 | R 2.19 | T 2.6 | V 2.44 | W 2.41 | Y 2.09
P5: A 2.76 | C 3.56 | D 2.15 | E 1.82 | F 3.01 | G 3.04 | H 3.81 | I 2.05 | K 2.06 | L 2.92 | M 2.65 | N 2.56 | Q 4.02 | R 2.99 | S 2.67 | T 2.46 | V 3.69 | W 2.98 | Y 2.31
A6: C 1.77 | D 2.12 | E 2.58 | F 2.06 | G 2.37 | H 2.3 | I 2.61 | K 2.22 | L 1.81 | M 2.07 | N 1.81 | P 1.94 | Q 2.11 | R 2.14 | S 2.43 | T 1.78 | V 2.02 | W 2.21 | Y 2.23
Y7: A 2.66 | C 2.26 | D 3.12 | E 3.06 | F 2.64 | G 2.31 | H 2.78 | I 2.47 | K 3 | L 2.28 | M 2.4 | N 2.31 | P 2.98 | Q 2.77 | R 2.76 | S 2.76 | T 2.95 | V 2.91 | W 2.31
L8: A 3.39 | C 3.05 | D 2.22 | E 1.8 | F 2.93 | G 1.69 | H 2.12 | I 3.09 | K 3.83 | M 2.23 | N 3.65 | P 1.81 | Q 3.47 | R 2.47 | S 3.08 | T 2.81 | V 2.49 | W 2.04 | Y 2.5
A9: C 1.77 | D 1.42 | E 1.56 | F 1.94 | G 2.19 | H 2.51 | I 2.81 | K 1.68 | L 1.5 | M 1.38 | N 2.39 | P 3.18 | Q 1.84 | R 1.96 | S 2.96 | T 2.24 | V 2.29 | W 2.21 | Y 1.74
Y10: A 3.76 | C 2.25 | D 2.37 | E 2.94 | F 2.32 | G 1.75 | H 1.68 | I 3 | K 3.03 | L 2 | M 2.3 | N 2.05 | P 2.11 | Q 2.19 | R 3.34 | S 2.56 | T 3.44 | V 2.41 | W 2.28
I11: C 1.66 | D 3.19 | E 2.64 | F 2.67 | G 1.87 | H 2.46 | K 2.59 | L 2.24 | M 2.35 | N 2.59 | P 3.06 | Q 2.85 | R 2.29 | S 2.99 | T 2.99 | V 2.33 | W 2.35 | Y 3.27
N12: A 1.77 | C 2.02 | D 2.26 | E 1.93 | F 2.28 | G 1.65 | H 3.13 | I 1.64 | K 2.41 | L 2.1 | M 2.33 | P 3.69 | Q 2.25 | R 2.04 | S 1.58 | T 2.06 | V 2.44 | W 2.09 | Y 2.23
A13: C 3.05 | D 1.94 | E 1.94 | F 2.06 | G 2.27 | H 2.88 | I 2.49 | K 2.52 | L 2.21 | M 3.18 | N 1.9 | P 2.63 | Q 2.83 | R 2.51 | S 1.83 | T 2.28 | V 2.33 | W 1.64 | Y 2.13
K14: A 1.79 | C 2.14 | D 1.16 | E 2.03 | F 2.35 | G 2.89 | H 2.16 | I 2.81 | L 1.9 | M 1.57 | N 2.57 | P 1.95 | Q 2.55 | R 2.51 | S 1.51 | T 2.86 | V 2.15 | W 1.62 | Y 2.63
S15: A 2.53 | C 3.03 | D 2.06 | E 2.29 | F 2.06 | G 2.11 | H 2.59 | I 2.25 | K 2.31 | L 2.42 | M 2.14 | N 2.29 | P 1.61 | Q 2.17 | R 2.04 | T 2 | V 2.26 | W 2.08 | Y 1.62
R16: A 2.04 | C 2.72 | D 2.4 | E 2.33 | F 1.77 | G 1.74 | H 2.15 | I 2.2 | K 2.4 | L 2.56 | M 1.81 | N 1.35 | P 2.12 | Q 2.17 | S 2.43 | T 2.55 | V 2.99 | Y 2.82
A17: C 2.1 | D 1.93 | E 1.75 | F 2.24 | G 3.02 | H 2.22 | I 1.93 | K 1.53 | L 2.04 | M 2.23 | N 2.67 | P 2.45 | Q 3.13 | R 1.68 | S 2.06 | T 2.02 | V 2.19 | W 2.17 | Y 2.05
E18: A 2.58 | C 2.46 | D 2.4 | F 2.37 | G 2.31 | H 2.33 | I 3.18 | K 3.05 | L 1.61 | M 2.11 | N 2.21 | P 1.88 | Q 1.51 | R 1.97 | S 2 | T 1.82 | V 2.76 | W 2.76 | Y 2.15
A19: C 2.84 | D 2.33 | E 2.69 | F 2.31 | G 2.56
